According to paper PMC4265266:
Where “and” joins values, the source holds several entries; their conditions need not be identical. Identical values can stand only once.

Target: FLAG-tagged recombinant human butyrylcholinesterase (^FLAGBChE) (human) (UniProt P06276)
Assay: non-reducing SDS-PAGE with immuno

In the case of “FLAG-tagged recombinant human butyrylcholinesterase (^FLAGBChE) (from UniProt P06276 29-602) (enzyme)”, the stoichiometry N is reported as 2 and 4.
